This note sets out measurements from paper PMC8509808, “Characterization of the Chimeric PriB-SSBc Protein” (International Journal of Molecular Sciences, 2021).

In data set [1] the target is chimeric PriB-SSBc protein (KpPriB1-98 fused KpSSB112-174) (Klebsiella pneumoniae) (UniProt A6THB2). The experiment in a line: SEC; purified PriB-SSBc 4 mg/mL in 20 mM HEPES, 100 mM NaCl, pH 7.0 on a Superdex 200 prep grade column, calibrated with standard proteins. On the technique in general: Size exclusion chromatography separates by hydrodynamic size, large species first.

In data set [2] the target is T1, KpSSB (Klebsiella pneumoniae, UniProt A6TGW7 1-174). The experiment in a line: EMSA; monomer conc.; 2 complexes; EMSA: 20 mM Tris-HCl pH 8.0, 100 mM NaCl, 25 C, 30 min, 1.7 nM 32P-ssDNA; 8% native PAGE in TBE at 4 C. Particulars: protein: recombinant; tags: none (tag-free); chain copies: 4; label: 5'-32P. Background: Mobility shift assays separate free from complexed probe on a gel.

Data set [3] addresses T2, KpPriB (Klebsiella pneumoniae, UniProt A6THB2 1-104). The experiment in a line: EMSA; monomer conc.; 1 complex; EMSA: 20 mM Tris-HCl pH 8.0, 100 mM NaCl, 25 C, 30 min, 1.7 nM 32P-ssDNA; 8% native PAGE in TBE at 4 C. Particulars: protein: recombinant; tags: none (tag-free); chain copies: 2; label: 5'-32P.
Data set [4] addresses T1, KpSSB. Described as above. Conditions: protein: recombinant; tags: none (tag-free); chain copies: 4; label: 5'-32P.
Data set [5] concerns the target T2, KpPriB. The data set is described as follows: EMSA; ND; up to 50 uM protein; EMSA: 20 mM Tris-HCl pH 8.0, 100 mM NaCl, 25 C, 30 min, 1.7 nM 32P-ssDNA; 8% native PAGE in TBE at 4 C. Particulars: protein: recombinant; tags: none (tag-free); chain copies: 2; label: 5'-32P.
Data set [6] has as its target T1, KpSSB. The experiment in a line: EMSA; ND; up to 5 uM protein; EMSA: 20 mM Tris-HCl pH 8.0, 100 mM NaCl, 25 C, 30 min, 1.7 nM 32P-ssDNA; 8% native PAGE in TBE at 4 C. Particulars: protein: recombinant; tags: none (tag-free); chain copies: 4; label: 5'-32P.
Data set [7] deals with the molecule itself. The data set is described as follows: crystal structure; KpSSB without DNA, 14 mg/mL, hanging drop vapor diffusion, 20% PEG 3350, 0.2 M magnesium acetate tetrahydrate, pH 6.5; four monomers per asymmetric unit.
Data set [8] concerns the target T1, KpSSB. The experiment in a line: EMSA; ND; no stable complex up to 5 uM protein; EMSA: 20 mM Tris-HCl pH 8.0, 100 mM NaCl, 25 C, 30 min, 1.7 nM 32P-ssDNA; 8% native PAGE in TBE at 4 C. Particulars: protein: recombinant; tags: none (tag-free); chain copies: 4; label: 5'-32P.

In data set [1], “chimeric PriB-SSBc protein (KpPriB1-98 fused KpSSB112-174) (from UniProt A6THB2 1-98; A6TGW7 112-174)” showed a stoichiometry N of 2.

B1: dT60 (ssDNA)
DNA: TTTTTTTTTTTTTTTTTTTTTTTTTTTTTTTTTTTTTTTTTTTTTTTTTTTTTTTTTTTT
As to B1, the “apparent K (half saturation)” value with KpSSB [2] amounted to 50 ± 10 nM; with KpPriB [3], 4.8 ± 0.5 µM.
In the case of TTTTTTTTTTTTTTTTTTTTTTTTT (ssDNA) [dT25], the figures for the “apparent K (half saturation)” value with KpPriB [3] and with KpSSB [4] were 14.1 ± 1 µM and 580 ± 50 nM, respectively.
Turning to TTTTTTTTTTTTTTT (ssDNA) [dT15], the binding result in the data set with KpPriB [5] and with KpSSB [6] was “no binding” in each case.
As for TTTTTTTTTTTTTTTTTTTTTTTTTTTTTTTTTTTTTTTTTTTTTTTTTT (ssDNA) [dT50], the figures for the “apparent K (half saturation)” value with KpPriB [3] and with KpSSB [4] were 5.6 ± 0.3 µM and 170 ± 20 nM, respectively.

B2: Klebsiella pneumoniae SSB (natural protein, UniProt A6TGW7 1-174, looked up)
chain: MASRGVNKVILVGNLGQDPEVRYMPSGGAVANFTLATSESWRDKQTGEMKEQTEWHRVVLFGKLAEVAGEYLRKGSQVYIEGQLRTRKWTDQSGQDKYTTEVVVNVGGTMQMLGGRQGGGAPAGGGQQQGGWGQPQQPQGGNQFSGGAQSRPQQQAPAAPSNEPPMDFDDDIPF
notes: amino acids 120-174 not observed in the crystal structure; the gene spans 525 nt; also called KpSSB; source: E. coli, purified (ammonia sulfate precipitation, Q and Heparin columns)
As to B2, the “stoichiometry N” value in data set [7] was 4.
Take TTTTTTTTTTTTTTTTTTTT (ssDNA) [dT20]: the binding result with KpSSB [8] was “no binding”.
In the case of TTTTTTTTTTTTTTTTTTTTTTTTTTTTTT (ssDNA) [dT30], the “apparent K (half saturation)” value turned out to be 9.2 ± 0.8 µM with KpPriB [3] and 550 ± 40 nM with KpSSB [4].

B3: dT55 (ssDNA)
DNA: TTTTTTTTTTTTTTTTTTTTTTTTTTTTTTTTTTTTTTTTTTTTTTTTTTTTTTT
On to B3, for which the “apparent K (half saturation)” value in the data set with KpSSB [2] is 130 ± 10 nM; in the data set with KpPriB [3], 4.9 ± 0.5 µM.
Consider TTTTTTTTTTTTTTTTTTTTTTTTTTTTTTTTTTTTTTTT (ssDNA) [dT40], for which the entries for the “apparent K (half saturation)” value with KpPriB [3] and with KpSSB [4] were 9.1 ± 0.8 µM and 230 ± 10 nM, respectively.

As a reminder, the stoichiometry N is a count of units in the complex or per binding partner.
